Measurements reported in US10081667B2, “Composition and method for therapeutic agent delivery during pregnancy” (University of Mississippi Medical Center, priority 2013, dated 2018).
Like-named read-outs stand apart in the source and are kept apart here.

How the values were obtained:
[1] = Biodistribution of fluorescently labeled ELP / SynB1-ELP in pregnant rats after IV bolus (ex vivo imaging, frozen sections); parameters: species or system Sprague Dawley rats
Protocol: FIG. 2 includes a series of images and a graph showing the biodistribution of ELP in pregnant rats. FIG. 2A. The ELP drug carrier was labeled with AlexalFluor633 and infused into normal pregnant Sprague Dawley rats by IV injection (100 mg/kg). 4 h after injection, ex vivo images of placentas, pups, and major organs were collected using an IVIS Spectrum. FIG. 2B. Fluorescence intensity was quantified in all tissues. Error bars represent the standard deviation of 3 rats.
FIG. 3 includes a series of images and a graph illustrating placental distribution of ELP and SynB1-ELP. FIG. 3A. After IV administration of fluorescently-labeled polypeptides or saline control, placentas, pups, and major organs were removed and imaged ex vivo using an IVIS Spectrum. Polypeptide deposition in placentas and pups is shown. FIG. 3B. Fluorescence levels in placentas, pups, and major organs was quantified using Living Image software. Error bars represent the standard deviation of four rats per treatment group. FIG. 3C. Frozen sections of intact placentas and pups were cut, stained with the actin-specific rhodamine-phalloidin to allow visualization of the placenta and pups, and scanned using a florescence slide scanner. FIG. 3D. The same slides were imaged using a florescence microscope to visualize the cellular localization of the polypeptides in the placenta (100× magnification).
Pregnant Sprague Dawley rats on day 14 of gestation were injected with fluorescently labeled ELP (100 mg/kg IV). […] Placentas and pups were dissected from the amniotic sacks and imaged ex vivo using an IVIS Spectrum animal imager to detect and quantitate the ELP levels. […] In contrast, almost no ELP was detectable in the pups. The image intensities of the placentas, pups, and major organs were quantitated using Living Image software, and the results are shown in FIG. 2B. […] These high ELP levels in the placenta are unprecedented with this molecule. By way of comparison, the placenta levels are 2 to 10 fold higher than the tumors levels (Bidwell G L, et al., PloS One, 2013; Bidwell G L, 3rd, Cancer Lett., 2012).
This example also examined whether the addition of a CPP to ELP would affect its penetration across the placenta. SynB1-ELP was labeled with Alexa633 and injected as described above. For comparison, animals were injected with saline control or ELP-Alexa633 at an equivalent dose. Four hours after injection, placental, fetal, and organ levels were determined by ex vivo fluorescence imaging. […] In addition to the ex vivo fluorescence imaging, the fetal-amnio-placental complex was removed, rapidly frozen, and sectioned using a cryomicrotome. Tissue sections were stained with the actin-specific rhodamine-phalloidin to allow visualization of all tissue and imaged directly using a fluorescence slide scanner. […] The intraplacental distribution SynB1-ELP-Alexa633 differed slightly from ELP-Alexa633. […] Both polypeptides could be detected within the cells of the placenta when examined microscopically (FIG. 3D).

[2] = rat, in vivo
[3] = rat, in vivo; remark: listed apart in the source
trophoblast cells = conditions: rat, in vivo
[4] = Plasma levels and biodistribution after chronic infusion by IP minipump GD14-GD19; format: in vivo, rats
Protocol: FIG. 7 includes images and graphs showing plasma levels and biodistribution of FLPs after Chronic Infusion. FIG. 7A. Rhodamine-labeled ELP or SynB1-ELP was administered chronically by IP minipump from GD14-GD19. Plasma was sampled throughout the experiment, and polypeptide levels were determined relative to standards of the injected protein. Data represent the mean±s.d. of four rats per group. FIG. 7B. Ex vivo fluorescence imaging of eight pups and corresponding placentas from one rat from each group is shown. FIG. 7C. Fluorescence intensities were quantified, corrected for autofluorescence, and fit to standards of the injected proteins. Data represent the mean±s.e. of eight placentas and eight pups per rat and four rats per group. *Statistically significant as determined by a two-way ANOVA with post-hoc Bonferroni multiple comparisons (p<0.05). **Levels were not detectable over autofluorescence.
Whether the fetal exclusion held after five days of continuous infusion of the polypeptides is also examined. ELP or SynB1-ELP was administered continuously from GD14 to GD19 using an IP minipump. […] At the dose used (30 mg/kg/day), the plasma levels were maintained at 33.94 μg/mL for ELP and 69.15 μg/mL for SynB1-ELP. These plasma levels are a reflection of many in vivo kinetic processes, including the rate of transport from the peritoneal fluid to the blood, the rate of extravasation from the blood to the tissues, and the plasma clearance rate. […] These plasma concentration data also provide useful information for the formulation of dosages when ELP is fused with therapeutic agents.
Ex vivo whole organ fluorescence analysis of the placentas is performed, pups, and organs on GD19 following five days of continuous polypeptide infusion. Relative to the acute experiment, the placental levels of the polypeptides were lower, which resulted from the difference in dose (100 mg/kg in the bolus dosing versus 30 mg/kg/day in the chronic infusion). […] The kidneys still accumulated the most polypeptide, followed by the liver and the placenta (FIG. 7C). […]

B1: ELP: elastin-like polypeptide drug carrier, repeats of VPGXG; unmodified carrier, fluorescently labeled for the tests (protein)
chain: VGVPGAGVPGGGVPGAGVPGGGVPGAGVPGGGVPGAGVPGGGVPGAGVPGGGVPGAGVPGGGVPGAGVPGGGVPGAGVPGVGVPGAGVPGGGVPGAGVPGGGVPGAGVPGGGVPGAGVPGGGVPGAGVPGGGVPGAGVPGGGVPGAGVPGGGVPGAGVPGVGVPGAGVPGGGVPGAGVPGGGVPGAGVPGGGVPGAGVPGGGVPGAGVPGGGVPGAGVPGGGVPGAGVPGGGVPGAGVPGVGVPGAGVPGGGVPGAGVPGGGVPGAGVPGGGVPGAGVPGGGVPGAGVPGGGVPGAGVPGGGVPGAGVPGGGVPGAGVPGVGVPGAGVPGGGVPGAGVPGGGVPGAGVPGGGVPGAGVPGGGVPGAGVPGGGVPGAGVPGGGVPGAGVPGGGVPGAGVPGVGVPGAGVPGGGVPGAGVPGGGVPGAGVPGGGVPGAGVPGGGVPGAGVPGGGVPGAGVPGGGVPGAGVPGGGVPGAGVPGVGVPGAGVPGGGVPGAGVPGGGVPGAGVPGGGVPGAGVPGGGVPGAGVPGGGVPGAGVPGGGVPGAGVPGGGVPGAGVPGVGVPGAGVPGGGVPGAGVPGGGVPGAGVPGGGVPGAGVPGGGVPGAGVPGGGVPGAGVPGGGVPGAGVPGGGVPGAGVPGGGVPGAGVPGGGVPGAGVPGGGVPGAGVPGGGVPGAGVPGGGVPGAGVPGGGVPGAGVPGGGVPGAGVPGGGVPGAGVPGVGVPGAGVPGGGVPGAGVPGGGVPGAGVPGGGVPGAGVPGGGVPGAGVPGGGVPGAGVPGGGVPGAGVPGGGVPGAGVPG
modifications: Alexa633 label; synthetic ELP
notes: elastin-like polypeptide drug carrier, repeats of VPGXG; unmodified carrier, fluorescently labeled for the tests
[1]; 4 h after 100 mg/kg IV
  placental accumulation relative to other organs: nearly equivalent to levels in the liver
[1]; 4 h after 100 mg/kg IV, GD14
  level in pups, ex vivo fluorescence imaging: barely detectable over autofluorescence in the pups
  placental accumulation, ex vivo fluorescence imaging: accumulated strongly in the placenta
[1]; 4 h after IV injection
  placental accumulation, frozen sections, fluorescence slide scanner: accumulated at high levels in the placenta relative to autofluorescence controls
  polypeptide in pups, frozen sections, fluorescence slide scanner: no polypeptide was detectable in the pups
[1]; frozen sections
  intraplacental distribution: accumulated at high levels throughout the placenta
[1]; pregnant rats GD14, 100 mg/kg IV
  half-life: Four hours after injection, which is about one half-life
[2]
  level in pups: Neither peptide was detectable in the pups
[3]
  total signal in degraded bands <50 kDa: less than 20%
Trophoblast cells
  accumulation in trophoblast cells: accumulated in the cytoplasm of trophoblast cells
  polypeptide in interior of chorionic villi (fetal blood): contained no ELP or SynB1-ELP
[4]; 30 mg/kg/day IP minipump GD14-GD19
  steady state plasma level: 33.94 µg/mL
[4]; GD19, five days continuous infusion
  placental accumulation: accumulated at high levels in the placenta
[4]; GD19, five days continuous infusion, 30 mg/kg/day
  level in pups: undetectable over autofluorescence in the pups
